Measured values taken from patent US20240092919A1 (Ablynx, published 2024).
Where “and” joins values, the source holds several entries; their conditions need not be identical. Identical values can stand only once.

How the values were obtained:
[1] = molecular target: T1, cyno GPC3 on cells (cynomolgus monkey, UniProt A0A2K5VK50 24-553); test: flow cytometry on cells; lower end, tied by Table 44 to CHO cyGPC3
T1 construct: whole, on cells; also called CHO cyGPC3; CHO-Flp-In cells overexpressing cyno GPC3

[2] = molecular target: T2, human GPC3 on cells (human, UniProt P51654 25-554); test: flow cytometry on cells; upper end, tied by Table 44 to CHO huGPC3
T2 construct: whole, on cells; also called CHO huGPC3; CHO-Flp-In cells overexpressing human GPC3

[3] = molecular target: T3, human CD123 on cells (human, UniProt P26951 19-378); test: flow cytometry on CHO cells transfected with human CD123
T3 construct: also called CHO human CD123; CHO hu CD123
Target sequence in this assay (P26951 19-378 limits assumed): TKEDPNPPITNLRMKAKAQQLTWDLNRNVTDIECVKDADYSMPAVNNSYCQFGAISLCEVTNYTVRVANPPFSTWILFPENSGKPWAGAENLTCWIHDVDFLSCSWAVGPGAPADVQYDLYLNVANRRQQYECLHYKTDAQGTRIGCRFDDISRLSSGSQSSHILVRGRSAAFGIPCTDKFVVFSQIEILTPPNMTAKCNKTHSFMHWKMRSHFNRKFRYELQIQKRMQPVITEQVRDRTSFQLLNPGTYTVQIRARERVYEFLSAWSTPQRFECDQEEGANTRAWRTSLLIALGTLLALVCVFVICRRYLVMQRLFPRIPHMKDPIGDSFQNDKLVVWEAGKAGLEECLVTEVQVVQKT

[4] = molecular target: T4, cynomolgus CD123 on cells (cynomolgus); test: flow cytometry on HEK293 cells transfected with cynomolgus CD123
T4 construct: whole, on cells; also called HEK293 cyno CD123; cyCD123

[5] = molecular target: T3, human CD123 on cells; test: flow cytometry on CHO Flp-In huCD123 cells; FLAG-tagged ISVD, anti-FLAG + APC goat anti-mouse; MFI (median APC) [panel CHO Flp-In huCD123 cells]
Target sequence in this assay (P26951 19-378 limits assumed): as above

[6] = molecular target: T4, cynomolgus CD123 on cells; test: flow cytometry on HEK Flp-In cyCD123 cells; FLAG-tagged ISVD, anti-FLAG + APC goat anti-mouse; MFI (median APC) [panel HEK Flp-In cyCD123 cells]
[7] = molecular target: human CD33 on cells (human, UniProt P20138 18-364); test: cell-based or functional assay
Target sequence in this assay (P20138 18-364): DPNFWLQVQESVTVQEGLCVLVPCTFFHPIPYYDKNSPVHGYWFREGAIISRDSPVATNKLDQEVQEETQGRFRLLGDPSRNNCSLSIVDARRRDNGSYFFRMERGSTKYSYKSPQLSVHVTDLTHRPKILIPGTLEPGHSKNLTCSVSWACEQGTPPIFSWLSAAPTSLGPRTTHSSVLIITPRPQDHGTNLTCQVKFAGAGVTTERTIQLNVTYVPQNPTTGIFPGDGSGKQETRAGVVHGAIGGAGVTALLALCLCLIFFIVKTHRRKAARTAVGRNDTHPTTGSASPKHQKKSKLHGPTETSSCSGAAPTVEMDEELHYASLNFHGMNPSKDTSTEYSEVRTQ

[8] = molecular target: human CD123 on cells (human, UniProt P26951 19-378); test: cell-based or functional assay
[9] = molecular target: T5, cynomolgus serum albumin (cynomolgus monkey, UniProt A2V9Z4 25-608); test: SPR (ProteOn XPR36, 37°C), albumin immobilised
T5 construct: also called CSA
T5 sequence (A2V9Z4 25-608 limits assumed): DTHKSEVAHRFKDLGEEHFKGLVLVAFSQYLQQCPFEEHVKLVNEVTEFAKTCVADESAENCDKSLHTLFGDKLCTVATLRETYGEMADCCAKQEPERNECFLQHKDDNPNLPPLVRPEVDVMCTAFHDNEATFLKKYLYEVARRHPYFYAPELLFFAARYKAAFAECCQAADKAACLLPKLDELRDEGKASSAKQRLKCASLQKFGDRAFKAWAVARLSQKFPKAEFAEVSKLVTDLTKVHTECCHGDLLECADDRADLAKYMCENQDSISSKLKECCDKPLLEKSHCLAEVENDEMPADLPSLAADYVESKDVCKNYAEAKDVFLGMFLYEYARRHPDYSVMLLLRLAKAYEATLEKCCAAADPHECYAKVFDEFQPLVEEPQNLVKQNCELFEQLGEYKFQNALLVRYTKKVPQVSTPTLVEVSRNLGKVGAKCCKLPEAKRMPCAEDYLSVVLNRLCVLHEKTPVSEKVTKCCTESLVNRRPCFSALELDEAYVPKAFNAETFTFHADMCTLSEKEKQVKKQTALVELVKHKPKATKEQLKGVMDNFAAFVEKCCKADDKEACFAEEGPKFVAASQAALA

[10] = molecular target: T6, human CD33 on cells (human, UniProt P20138 18-364); test: cell-based or functional assay; remark: listed apart in the source
T6 sequence (P20138 18-364): as the sequence (P20138 18-364) above

[11] = molecular target: T3, human CD123 on cells; test: cell-based or functional assay; remark: listed apart in the source
[12] = molecular target: cynomolgus CD33 on cells (cynomolgus); test: cell-based or functional assay
[13] = molecular target: T4, cynomolgus CD123 on cells; test: cell-based or functional assay
[14] = molecular target: T7, human TCR on primary human T cells (human, UniProt P01848 1-140; P01850 1-176); test: cell-based or functional assay
T7 TCR alpha (looked up): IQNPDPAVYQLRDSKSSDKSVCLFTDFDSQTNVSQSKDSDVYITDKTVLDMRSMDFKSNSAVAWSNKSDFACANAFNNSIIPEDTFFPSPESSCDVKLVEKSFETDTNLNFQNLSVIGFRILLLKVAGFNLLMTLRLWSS
T7 TCR beta (looked up): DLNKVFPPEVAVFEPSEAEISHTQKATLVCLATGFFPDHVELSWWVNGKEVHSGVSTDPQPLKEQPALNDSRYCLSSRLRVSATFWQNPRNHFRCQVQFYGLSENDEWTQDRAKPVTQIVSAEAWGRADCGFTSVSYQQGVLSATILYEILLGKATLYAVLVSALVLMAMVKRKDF

[15] = molecular target: cynomolgus TCR on primary cynomolgus T cells (cynomolgus); test: cell-based or functional assay
[16] = molecular target: T8, Cynomolgus TCR(AEA41865/AEA41866)-zipper protein (cynomolgus); test: SPR, ProteOn XPR36, 37 C; TCR-zipper coated on GLC chip
T8 construct: also called cyTCR-zipper; cyTCR(AEA41865)-zipper
T8 TCR alpha: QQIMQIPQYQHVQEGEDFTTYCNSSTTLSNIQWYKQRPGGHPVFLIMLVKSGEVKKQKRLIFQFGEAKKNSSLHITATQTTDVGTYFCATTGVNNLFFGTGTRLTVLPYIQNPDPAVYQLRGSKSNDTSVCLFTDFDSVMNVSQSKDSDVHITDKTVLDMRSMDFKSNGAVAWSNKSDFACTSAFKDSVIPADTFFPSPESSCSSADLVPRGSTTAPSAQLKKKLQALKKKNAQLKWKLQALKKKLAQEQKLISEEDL
T8 TCR beta: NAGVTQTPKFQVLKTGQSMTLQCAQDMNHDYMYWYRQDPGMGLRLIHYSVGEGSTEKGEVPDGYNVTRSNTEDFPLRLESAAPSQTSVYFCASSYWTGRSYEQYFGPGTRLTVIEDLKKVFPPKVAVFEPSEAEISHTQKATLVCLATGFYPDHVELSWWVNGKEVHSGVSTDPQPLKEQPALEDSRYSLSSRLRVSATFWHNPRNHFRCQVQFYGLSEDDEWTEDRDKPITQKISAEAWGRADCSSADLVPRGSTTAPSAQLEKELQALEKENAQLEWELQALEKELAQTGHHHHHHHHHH

[17] = molecular target: T9, huCD33L-Fc (human, UniProt P20138 18-259); test: SPR, ProteOn XPR36, 37 C; CD33L-Fc captured on anti-huIgG (Fc)
T9 construct: also called Human CD33L-Fc; not shown: Fc part, not described (captured by anti-huIgG (Fc))
T9 sequence (P20138 18-259 limits assumed): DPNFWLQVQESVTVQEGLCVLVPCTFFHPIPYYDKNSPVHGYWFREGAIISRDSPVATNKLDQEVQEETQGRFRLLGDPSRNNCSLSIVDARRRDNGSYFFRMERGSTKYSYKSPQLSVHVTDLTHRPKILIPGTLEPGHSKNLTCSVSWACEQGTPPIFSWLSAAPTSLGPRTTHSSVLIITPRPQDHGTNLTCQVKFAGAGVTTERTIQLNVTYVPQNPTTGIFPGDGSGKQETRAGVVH

[18] = molecular target: T10, cyCD33L-Fc (cynomolgus); test: as above
T10 construct: also called Cynomolgus CD33L-Fc

[19] = molecular target: T11, huCD123-Fc (human, UniProt P26951 19-305); test: SPR, ProteOn XPR36, 37 C; CD123-Fc captured on anti-huIgG (Fc)
T11 construct: also called Human CD123-Fc; not shown: Fc part, not described (captured by anti-huIgG (Fc))
T11 sequence: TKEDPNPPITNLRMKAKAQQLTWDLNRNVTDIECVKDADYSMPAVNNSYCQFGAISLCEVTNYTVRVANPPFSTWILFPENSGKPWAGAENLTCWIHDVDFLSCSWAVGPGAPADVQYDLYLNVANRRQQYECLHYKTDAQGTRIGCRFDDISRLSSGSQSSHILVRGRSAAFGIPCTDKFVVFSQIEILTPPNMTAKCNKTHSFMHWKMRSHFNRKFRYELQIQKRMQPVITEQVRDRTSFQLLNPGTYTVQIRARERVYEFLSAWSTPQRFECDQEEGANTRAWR

[20] = molecular target: T12, cyCD123-Fc (cynomolgus); test: as above
T12 construct: also called Cynomolgus CD123-Fc

[21] = molecular target: T13, mouse serum albumin (mouse, UniProt P07724 25-608); test: SPR, ProteOn XPR36, 37 C; albumin immobilised by amine coupling
T13 construct: also called MSA
T13 sequence (P07724 25-608 limits assumed): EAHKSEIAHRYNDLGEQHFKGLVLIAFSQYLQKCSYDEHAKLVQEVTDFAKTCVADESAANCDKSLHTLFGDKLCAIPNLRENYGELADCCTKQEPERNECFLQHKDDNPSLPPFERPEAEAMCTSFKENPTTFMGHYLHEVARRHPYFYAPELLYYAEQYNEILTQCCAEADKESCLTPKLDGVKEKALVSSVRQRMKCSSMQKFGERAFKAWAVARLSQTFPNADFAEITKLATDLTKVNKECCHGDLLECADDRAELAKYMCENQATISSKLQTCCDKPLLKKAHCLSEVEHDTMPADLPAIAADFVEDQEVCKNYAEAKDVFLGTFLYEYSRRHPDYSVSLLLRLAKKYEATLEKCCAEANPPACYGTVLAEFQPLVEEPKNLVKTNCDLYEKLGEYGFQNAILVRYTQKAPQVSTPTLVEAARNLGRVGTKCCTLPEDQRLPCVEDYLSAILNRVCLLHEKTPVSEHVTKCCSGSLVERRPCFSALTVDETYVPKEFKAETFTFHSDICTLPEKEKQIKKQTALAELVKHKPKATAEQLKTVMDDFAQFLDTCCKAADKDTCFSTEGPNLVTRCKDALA

[22] = molecular target: T14, cynomolgus serum albumin (cynomolgus); test: as above
T14 construct: also called CSA
T14 sequence (A2V9Z4 25-608): as the sequence (A2V9Z4 25-608 limits assumed) above

[23] = molecular target: T15, human serum albumin (human, UniProt P02768 25-609); test: as above
T15 construct: also called HSA

[24] = molecular target: T7, human TCR on primary human T cells; test: flow cytometry competition on primary human T cells; competitor FLAG3His6 tagged monovalent TCR ISVD; global (weighted) IC50, n = 4
[25] = molecular target: T16, cynomolgus TCR on primary cynomolgus T cells (cynomolgus); test: flow cytometry competition on primary cynomolgus T cells; competitor FLAG3His6 tagged monovalent TCR ISVD; global (weighted) IC50, n = 7
T16 construct: whole, on cells; also called cyno TCRαβ

[26] = molecular target: T3, human CD123 on cells; test: flow cytometry on CHO Flp-In huCD123 cells; by paragraph 678 with 30 uM HSA, anti-VHH mAb ABH0077 + APC goat anti-mouse; MFI (mean APC) [panel CHO Flp-In huCD123 cells]
[27] = molecular target: T6, human CD33 on cells; test: flow cytometry on CHO Flp-In huCD33-long cells; by paragraph 678 with 30 uM HSA, anti-VHH mAb ABH0077 + APC goat anti-mouse; MFI (mean APC) [panel CHO Flp-In huCD33-long cells]

B1: A022600424 (other)
chain: DVQLVESGGGVVQPGGSLRLSCVASGYVHKINFYGWYRQAPGKEREKVAHISIGDQTDYADSAKGRFTISRDESKNTVYLQMNSLRPEDTAAYYCRALSRIWPYDYWGQGTLVTVSSGGGGSEVQLVESGGGVVQPGGSLRLSCAASGFTFSSFAMTWVRRPPGKGLEWVATITNKGVTSYADSVKGRFTISRDNAKNTLYLQMNSLRPEDTALYICANARRTGPRAPTDIGSYRGQGTLVTVSSGGGGSGGGSEVQLVESGGGVVQPGGSLRLSCAASGSIFRSVFSSSTMEWYRQAPGKKRELVARIAPGEGTYYGALYADSVKGRFTISRDNAKNTVYLQMNSLRPEDTALYYCASGVAWGQGTLVTVSSGGGGSGGGSEVQLVESGGGVVQPGGSLRLSCAASGFTFRSFGMSWVRQAPGKGPEWVSSISGSGSDTLYADSVKGRFTISRDNSKNTLYLQMNSLRPEDTALYYCTIGGSLSRSSQGTLVTVSSA
notes: also called T017000680-5GS-A022600351-9GS-A022600314-9GS-ALB23002-A
- EC50 [1]: 1 to 2 nM
- EC50 [2]: 1 to 2 nM

B2: monovalent CD123 building block (SEQ ID NO: 462) (VHH)
VHH: EVQLVESGGGVVQPGGSLRLSCAASGVIFSGNVMGWYRRQAPGKEREWVAAIAEGGSILYRDSVKGRFTISRDNAKNTVYLQMNSLRPEDTALYYCNSHPPVLPYWGQGTLVTVSS
- EC50 [3]: 0.31 nM and 0.2 nM
- EC50 [4]: 0.8 nM
- EC50 (read off the curve) [5]: ~0.7 nM
- EC50 (read off the curve) [6]: ~0.3 nM

B3: TCRαβ-CD33-CD123 multispecific ISVD construct (other)
chain: DVQLVESGGGVVQPGGSLRLSCVASGYVHKINFYGWYRQAPGKEREKVAHISIGDQTDYADSAKGRFTISRDESKNTVYLQMNSLRPEDTAAYYCRALSRIWPYDYWGQGTLVTVSSGGGGSGGGSEVQLVESGGGVVQPGGSLRLSCAASGGVFRLNSMGWFRQAPGKQRELVAIITSDGDTNYADSVKGRFTISRDQAKNTVYLQMNSLRPEDTALYYCQITYSTSSYSFPINTWGQGTLVTVSSGGGGSGGGSEVQLVESGGGVVQPGGSLRLSCAASGVIFSGNVMGWYRRQAPGKEREWVAAIAEGGSILYRDSVKGRFTISRDNAKNTVYLQMNSLRPEDTALYYCNSHPPVLPYWGQGTLVTVSSGGGGSGGGGSGGGGSGGGGSEVQLVESGGGVVQPGGSLRLSCAASGFTFRSFGMSWVRQAPGKGPEWVSSISGSGSDTLYADSVKGRFTISRDNSKNTLYLQMNSLRPEDTALYYCTIGGSLSRSSQGTLVTVSSA
notes: also called A025001562; CD123-CD33-TCR multispecific ISVD construct
- Global IC50, impedance-based (xCELLigence) human T cell mediated killing of CHO hu CD33 cells [7]: 0.054 nM
- Global IC50, impedance-based (xCELLigence) human T cell mediated killing of CHO hu CD123 cells [8]: 0.025 nM
- binding result [9]: binds

B4: TCRαβ-CD33-CD123 multispecific ISVD construct (SEQ ID NO: 460) (other)
chain: DVQLVESGGGVVQPGGSLRLSCVASGYVHKINFYGWYRQAPGKEREKVAHISIGDQTDYADSAKGRFTISRDESKNTVYLQMNSLRPEDTAAYYCRALSRIWPYDYWGQGTLVTVSSGGGGSGGGSEVQLVESGGGVVQPGGSLRLSCAASGGVFRLNSMGWFRQAPGKQRELVAIITSDGDTNYADSVKGRFTISRDQAKNTVYLQMNSLRPEDTALYYCQITYSTSSYSFPINTWGQGTLVTVSSGGGGSGGGSEVQLVESGGGVVQPGGSLRLSCAASGVIFSGNVMGWYRRQAPGKEREWVAAIAEGGSILYRDSVKGRFTISRDNAKNTVYLQMNSLRPEDTALYYCNSHPPVLPYWGQGTLVTVSSGGGGSGGGGSGGGGSGGGGSEVQLVESGGGVVQPGGSLRLSCAASGFTFRSFGMSWVRQAPGKGPEWVSSISGSGSDTLYADSVKGRFTISRDNSKNTLYLQMNSLRPEDTALYYCTIGGSLSRSSQGTLVTVSSA
notes: also called A025001562; TCR-CD33-CD123
- Global IC50 (M), impedance based human T cell mediated CHO hu CD33 cell killing, E:T 15:1, 50 uM HSA (n = 4) [10]: 1.1e-10 M
- Global IC50 (M), impedance based human T cell mediated CHO hu CD123 cell killing, E:T 15:1, 50 uM HSA (n = 7) [11]: 4.4e-11 M
- IC50 (M), impedance based cynomolgus T cell mediated CHO Flp-In cynoCD33 cell killing, E:T 15:1, 50 uM HSA [12]: 6.2e-12 M
- IC50 (M), impedance based cynomolgus T cell mediated CHO Flp-In cynoCD123 cell killing, E:T 15:1, 50 uM HSA [13]: 1.4e-12 M
- Global EC50 (M), flow cytometry human T cell mediated MOLM-13 cell killing, E:T 10:1, 50 uM HSA (n = 13) [14]: 1.8e-11 M
- EC50 (M), cynomolgus T cell mediated MOLM-13 cell killing, E:T 10:1 [15]: 1.36e-11 M
- Kd [16]: 6.7 nM
- Kd [17]: 7.6 nM
- Kd [18]: 6.9 nM
- Kd [19]: 0.59 nM
- Kd [20]: 2 nM
- Kd [21]: < 500 nM
- Kd [22]: 7.9 nM
- Kd [23]: 9.7 nM
- IC50 [24]: 218 nM
- IC50 [25]: 729 nM
- EC50 (read off the curve) [26]: ~10 nM
- EC50 (read off the curve) [27]: ~70 nM
